B1: HOIP extended PUB domain (aa 1–184) [not stated] / FITC-Ahx-labeled OTULIN PIM peptide (aa 49–67) [modified: FITC-Ahx label; FITC-Ahx label] [not stated] (parent complex)
chain 1: MPGEEEERAFLVAREELASALRRDSGQAFSLEQLRPLLASSLPLAARYLQLDAARLVRCNAHGEPRNYLNTLSTALNILEKYGRNLLSPQRPRYWRGVKFNNPVFRSTVDAVQGGRDVLRLYGYTEEQPDGLSFPEGQEEPDEHQVATVTLEVLLLRTELSLLLQNTHPRQQALEQLLEDKVED
chain 2: AEHEEDMYRAADEIEKEKE

Variants of: B1
Assay: fluorescence polarisation; triplicate
Variant chain 2 AEHEEDMFRAADEIEKEKE [chain 2 Y8F] has a Kd of 64.5 µM.
In the case of chain 2 AEHEEDMWRAADEIEKEKE [chain 2 Y8W], the Kd is reported as 21.3 µM.
Work on chain 2 AEHEEAMYRAADEIEKEKE [chain 2 D6A] yielded a Kd of 11.2 µM.

Variants of: B1
Assay: fluorescence polarisation; triplicate
Remark: another data set of the same source
In the case of chain 1 MPGEEEERAFLVAREELASALRRDSGQAFSLEQLRPLLASSLPLAARYLQLDAARLVRCNAHGEPRNYLNTLSTALNILEKYGRNLLSPQRPRYWRGVKFNNPAFRSTVDAVQGGRDVLRLYGYTEEQPDGLSFPEGQEEPDEHQVATVTLEVLLLRTELSLLLQNTHPRQQALEQLLEDKVED [chain 1 V104A], the Kd is reported as 2.03 µM.
